In PMC5505701, “Somatostatin binds to the human amyloid β peptide and favors the formation of distinct oligomers” (eLife, 2017):

Experiments:
[1] = system: oligomeric Aβ1-42 (oAβ1-42-biotin bait); assay: Affinity capture interactome Experiment II (C-terminally tethered oAβ1-42-biotin vs biotin); conditions: enrichment relative to biotin-only negative control; human frontal lobe digitonin extract; TMT; pH 8.0, 4°C overnight
[2] = system: oligomeric versus monomeric Aβ1-42 (Aβ1-42-biotin bait); assay: Affinity capture interactome Experiment III (oAβ1-42-biotin vs mAβ1-42-biotin); conditions: oligomeric versus monomeric bait; human frontal lobe digitonin extract; TMT; pH 8.0, 4°C overnight

| Molecule | Experiment II oAβ1-42-B/B Ratio [1] | Experiment III oAβ1-42-B/mAβ1-42-B Ratio [2] |
| --- | --- | --- |
| Peroxiredoxin-2: human brain protein (protein, UniProt P32119 2-198, looked up) Peroxiredoxin-2: ASGNARIGKPAPDFKATAVVDGAFKEVKLSDYKGKYVVLFFYPLDFTFVCPTEIIAFSNRAEDFRKLGCEVLGVSVDSQFTHLAWINTPRKEGGLGPLNIPLLADVTRRLSEDYGVLKTDEGIAYRGLFIIDGKGVLRQITVNDLPVGRSVDEALRLVQAFQYTDEHGEVCPAGWKPGSDTIKPNVDDSKEYFSKHN | 1.51 | 2.40 |
| Peroxiredoxin-6: human brain protein (protein, UniProt P30041 2-224, looked up) Peroxiredoxin-6: PGGLLLGDVAPNFEANTTVGRIRFHDFLGDSWGILFSHPRDFTPVCTTELGRAAKLAPEFAKRNVKLIALSIDSVEDHLAWSKDINAYNCEEPTEKLPFPIIDDRNRELAILLGMLDPAEKDEKGMPVTARVVFVFGPDKKLKLSILYPATTGRNFDEILRVVISLQLTAEKRVATPVDWKDGDSVMVLPTIPEEEAKKLFPKGVFTKELPSGKKYLRYTPQP | 1.42 | 1.54 |
| Ubiquitin carboxyl-terminal hydrolase L1: human brain protein (protein, UniProt P09936 1-220, looked up) Ubiquitin carboxyl-terminal …: MQLKPMEINPEMLNKVLSRLGVAGQWRFVDVLGLEEESLGSVPAPACALLLLFPLTAQHENFRKKQIEELKGQEVSPKVYFMKQTIGNSCGTIGLIHAVANNQDKLGFEDGSVLKQFLSETEKMSPEDRAKCFEKNEAIQAAHDAVAQEGQCRVDDKVNFHFILFNNVDGHLYELDGRMPFPVNHGASSEDTLLKDAAKVCREFTEREQGEVRFSAVALC | 1.87 | 1.39 |
| ATP synthase subunit gamma, mitochondrial: human brain protein (protein, UniProt P36542 26-298, looked up) ATP synthase F(1) complex …: ATLKDITRRLKSIKNIQKITKSMKMVAAAKYARAERELKPARIYGLGSLALYEKADIKGPEDKKKHLLIGVSSDRGLCGAIHSSIAKQMKSEVATLTAAGKEVMLVGIGDKIRGILYRTHSDQFLVAFKEVGRKPPTFGDASVIALELLNSGYEFDEGSIIFNKFRSVISYKTEEKPIFSLNTVASADSMSIYDDIDADVLQNYQEYNLANIIYYSLKESTTSEQSARMTAMDNASKNASEMIDKLTLTFNRTRQAVITKELIEIISGAAALD |  | 3.29 |
| Tryptophanyl-tRNA synthetase, cytoplasmic: human brain protein (protein, UniProt P23381 2-471, looked up) Tryptophan--tRNA ligase, …: PNSEPASLLELFNSIATQGELVRSLKAGNASKDEIDSAVKMLVSLKMSYKAAAGEDYKADCPPGNPAPTSNHGPDATEAEEDFVDPWTVQTSSAKGIDYDKLIVRFGSSKIDKELINRIERATGQRPHHFLRRGIFFSHRDMNQVLDAYENKKPFYLYTGRGPSSEAMHVGHLIPFIFTKWLQDVFNVPLVIQMTDDEKYLWKDLTLDQAYSYAVENAKDIIACGFDINKTFIFSDLDYMGMSSGFYKNVVKIQKHVTFNQVKGIFGFTDSDCIGKISFPAIQAAPSFSNSFPQIFRDRTDIQCLIPCAIDQDPYFRMTRDVAPRIGYPKPALLHSTFFPALQGAQTKMSASDPNSSIFLTDTAKQIKTKVNKHAFSGGRDTIEEHRQFGGNCDVDVSFMYLTFFLEDDDKLEQIRKDYTSGAMLTGELKKALIEVLQPLIAEHQARRKEVTDEIVKEFMTPRKLSFDFQ |  | 3.97 |
| Centractin, beta: human brain protein (protein, UniProt P42025 1-376, looked up) Beta-centractin: MESYDIIANQPVVIDNGSGVIKAGFAGDQIPKYCFPNYVGRPKHMRVMAGALEGDLFIGPKAEEHRGLLTIRYPMEHGVVRDWNDMERIWQYVYSKDQLQTFSEEHPVLLTEAPLNPSKNREKAAEVFFETFNVPALFISMQAVLSLYATGRTTGVVLDSGDGVTHAVPIYEGFAMPHSIMRVDIAGRDVSRYLRLLLRKEGVDFHTSAEFEVVRTIKERACYLSINPQKDEALETEKVQYTLPDGSTLDVGPARFRAPELLFQPDLVGDESEGLHEVVAFAIHKSDMDLRRTLFANIVLSGGSTLFKGFGDRLLSEVKKLAPKDIKIKISAPQERLYSTWIGGSILASLDTFKKMWVSKKEYEEDGSRAIHRKTF |  | 3.25 |
| Cytosolic acyl CoA thioester hydrolase: human brain protein (protein, UniProt O00154 1-380, looked up) Cytosolic acyl coenzyme A …: MKLLARALRLCEFGRQASSRRLVAGQGCVGPRRGCCAPVQVVGPRADLPPCGACITGRIMRPDDANVAGNVHGGTILKMIEEAGAIISTRHCNSQNGERCVAALARVERTDFLSPMCIGEVAHVSAEITYTSKHSVEVQVNVMSENILTGAKKLTNKATLWYVPLSLKNVDKVLEVPPVVYSRQEQEEEGRKRYEAQKLERMETKWRNGDIVQPVLNPEPNTVSYSQSSLIHLVGPSDCTLHGFVHGGVTMKLMDEVAGIVAARHCKTNIVTASVDAINFHDKIRKGCVITISGRMTFTSNKSMEIEVLVDADPVVDSSQKRYRAASAFFTYVSLSQEGRSLPVPQLVPETEDEKKRFEEGKGRYLQMKAKRQGHAEPQP |  | 4.03 |
| Dihydropyrimidinase-related protein 5: human brain protein (protein, UniProt Q9BPU6 1-564, looked up) Dihydropyrimidinase-related …: MLANSASVRILIKGGKVVNDDCTHEADVYIENGIIQQVGRELMIPGGAKVIDATGKLVIPGGIDTSTHFHQTFMNATCVDDFYHGTKAALVGGTTMIIGHVLPDKETSLVDAYEKCRGLADPKVCCDYALHVGITWWAPKVKAEMETLVREKGVNSFQMFMTYKDLYMLRDSELYQVLHACKDIGAIARVHAENGELVAEGAKEALDLGITGPEGIEISRPEELEAEATHRVITIANRTHCPIYLVNVSSISAGDVIAAAKMQGKVVLAETTTAHATLTGLHYYHQDWSHAAAYVTVPPLRLDTNTSTYLMSLLANDTLNIVASDHRPFTTKQKAMGKEDFTKIPHGVSGVQDRMSVIWERGVVGGKMDENRFVAVTSSNAAKLLNLYPRKGRIIPGADADVVVWDPEATKTISASTQVQGGDFNLYENMRCHGVPLVTISRGRVVYENGVFMCAEGTGKFCPLRSFPDTVYKKLVQREKTLKVRGVDRTPYLGDVAVVVHPGKKEMGTPLADTPTRPVTRHGGMRDLHESSFSLSGSQIDDHVPKRASARILAPPGGRSSGIW |  | 3.79 |
| NAD-dependent deacetylase sirtuin-2: human brain protein (protein, UniProt Q8IXJ6 2-389, looked up) NAD-dependent protein …: AEPDPSHPLETQAGKVQEAQDSDSDSEGGAAGGEADMDFLRNLFSQTLSLGSQKERLLDELTLEGVARYMQSERCRRVICLVGAGISTSAGIPDFRSPSTGLYDNLEKYHLPYPEAIFEISYFKKHPEPFFALAKELYPGQFKPTICHYFMRLLKDKGLLLRCYTQNIDTLERIAGLEQEDLVEAHGTFYTSHCVSASCRHEYPLSWMKEKIFSEVTPKCEDCQSLVKPDIVFFGESLPARFFSCMQSDFLKVDLLLVMGTSLQVQPFASLISKAPLSTPRLLINKEKAGQSDPFLGMIMGLGGGMDFDSKKAYRDVAWLGECDQGCLALAELLGWKKELEDLVRREHASIDAQSGAGVPNPSTSASPKKSPPPAKDEARTTEREKPQ |  | 2.58 |
| Phosphoglycerate kinase 1: human brain protein (protein, UniProt P00558 2-417, looked up) Phosphoglycerate kinase 1: SLSNKLTLDKLDVKGKRVVMRVDFNVPMKNNQITNNQRIKAAVPSIKFCLDNGAKSVVLMSHLGRPDGVPMPDKYSLEPVAVELKSLLGKDVLFLKDCVGPEVEKACANPAAGSVILLENLRFHVEEEGKGKDASGNKVKAEPAKIEAFRASLSKLGDVYVNDAFGTAHRAHSSMVGVNLPQKAGGFLMKKELNYFAKALESPERPFLAILGGAKVADKIQLINNMLDKVNEMIIGGGMAFTFLKVLNNMEIGTSLFDEEGAKIVKDLMSKAEKNGVKITLPVDFVTADKFDENAKTGQATVASGIPAGWMGLDCGPESSKKYAEAVTRAKQIVWNGPVGVFEWEAFARGTKALMDEVVKATSRGCITIIGGGDTATCCAKWNTEDKVSHVSTGGGASLELLEGKVLPGVDALSNI | 1.38 | 1.73 |
| Mu-crystallin homolog: human brain protein (protein, UniProt Q14894 1-314, looked up) Ketimine reductase …: MSRVPAFLSAAEVEEHLRSSSLLIPPLETALANFSSGPEGGVMQPVRTVVPVTKHRGYLGVMPAYSAAEDALTTKLVTFYEDRGITSVVPSHQATVLLFEPSNGTLLAVMDGNVITAKRTAAVSAIATKFLKPPSSEVLCILGAGVQAYSHYEIFTEQFSFKEVRIWNRTKENAEKFADTVQGEVRVCSSVQEAVAGADVIITVTLATEPILFGEWVKPGAHINAVGASRPDWRELDDELMKEAVLYVDSQEAALKESGDVLLSGAEIFAELGEVIKGVKPAHCEKTTVFKSLGMAVEDTVAAKLIYDSWSSGK |  | 2.41 |
| Medium-chain specific acyl-CoA dehydrogenase: human brain protein (protein, UniProt P11310 26-421, looked up) Medium-chain specific …: KANRQREPGLGFSFEFTEQQKEFQATARKFAREEIIPVAAEYDKTGEYPVPLIRRAWELGLMNTHIPENCGGLGLGTFDACLISEELAYGCTGVQTAIEGNSLGQMPIIIAGNDQQKKKYLGRMTEEPLMCAYCVTEPGAGSDVAGIKTKAEKKGDEYIINGQKMWITNGGKANWYFLLARSDPDPKAPANKAFTGFIVEADTPGIQIGRKELNMGQRCSDTRGIVFEDVKVPKENVLIGDGAGFKVAMGAFDKTRPVVAAGAVGLAQRALDEATKYALERKTFGKLLVEHQAISFMLAEMAMKVELARMSYQRAAWEVDSGRRNTYYASIAKAFAGDIANQLATDAVQILGGNGFNTEYPVEKLMRDAKIYQIYEGTSQIQRLIVAREHIDKYKN |  | 1.82 |
